Assay results: paper PMC8420576 (The EMBO Journal, 2021)

Biological target: T1, SARS-CoV-2 RBD, B.1.427/B.1.429/Epsilon/Californian variant (L452R) (SARS-CoV-2, Epsilon/Californian …, L452R)
T1 construct: also called Epsilon/Californian RBD mutant; Californian L452R mutation
Assay: BLI
Conditions: both partners purified

B1: VHH antibody Re5D06, labeled with two PEG11-biotins (VHH)
VHH: QVQLVESGGGLVQPGGSLRLSCAASGITLDYYAIGWFRQAPGKEREGVSRIRSSDGSTNYADSVKGRFTMSRDNAKNTVYLQMNSLKPEDTAVYYCAYGPLTKYGSSWYWPYEYDYWGQGTQVTVSS
notes: also called Re5D06 (immobilized on BLI sensors)
Kd: ~400 pM
